Data as given in article PMC3210380.

T1: Aptxcat (HIT-Znf catalytic core) (Schizosaccharomyces pombe, UniProt O74859 30-232)
T1 sequence: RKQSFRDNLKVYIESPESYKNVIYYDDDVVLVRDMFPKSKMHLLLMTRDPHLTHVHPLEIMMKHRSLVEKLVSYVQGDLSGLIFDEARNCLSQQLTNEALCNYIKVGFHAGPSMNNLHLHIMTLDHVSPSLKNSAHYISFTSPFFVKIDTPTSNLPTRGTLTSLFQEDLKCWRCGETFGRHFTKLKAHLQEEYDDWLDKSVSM

T2: Aptx full-length WT (Schizosaccharomyces pombe, UniProt O74859 1-232)
T2 sequence: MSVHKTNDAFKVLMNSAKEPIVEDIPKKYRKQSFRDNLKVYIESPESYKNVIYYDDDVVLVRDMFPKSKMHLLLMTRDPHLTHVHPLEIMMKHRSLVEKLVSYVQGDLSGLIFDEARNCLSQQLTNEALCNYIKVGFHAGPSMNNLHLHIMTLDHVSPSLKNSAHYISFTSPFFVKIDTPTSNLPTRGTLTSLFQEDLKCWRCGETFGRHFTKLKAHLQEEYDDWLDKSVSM

T3: Aptx F65A (Schizosaccharomyces pombe, UniProt O74859 1-232, F65A)
T3 sequence: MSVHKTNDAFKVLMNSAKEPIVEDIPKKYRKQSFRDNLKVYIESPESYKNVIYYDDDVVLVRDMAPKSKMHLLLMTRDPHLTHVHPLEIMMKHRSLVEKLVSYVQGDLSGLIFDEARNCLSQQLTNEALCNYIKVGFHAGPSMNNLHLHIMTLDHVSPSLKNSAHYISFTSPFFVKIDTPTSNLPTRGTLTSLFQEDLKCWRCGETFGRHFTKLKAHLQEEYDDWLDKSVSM

B1: Crystallized duplex, strands A and C (dsDNA)
DNA 1: CCCTG
DNA 2: TATCGGAATCAGGG
modifications: 5'-OH and 3'-OH on both strands
B2: SSB 39-mer (1-nt gap, 3'- and 5'-phosphates) (dsDNA)
DNA 1: CCGAGCATGAATAACCTGCACCTGCATATTATGACTCTG
DNA 2: CAGAGTCATAATATGCAGG
DNA 3: GCAGGTTATTCATGCTCGG
modifications: 3'-phosphate on S5; 5'-phosphate on S6
B3: 39-mer dsDNA (dsDNA)
DNA 1: CAGAGTCATAATATGCAGGTGCAGGTTATTCATGCTCGG
DNA 2: CCGAGCATGAATAACCTGCACCTGCATATTATGACTCTG

Key:
[1] = target: T1, Aptxcat (HIT-Znf catalytic core); assay: X-ray crystallography
Aptx full-length WT = target: T2, Aptx full-length WT; assay: fluorescence polarization
Aptx F65A = target: T3, Aptx F65A; assay: fluorescence polarization

Row | Binder | binding result [1] | Kd (Aptx full-length WT) [nM] | Kd (Aptx F65A) [nM]
1 | B1 | binds |  | 
2 | B2 |  | 80 | 250
3 | B3 |  | 190 | 
4 | CAGAGTCATAATATGCAGGTGCAGGTTATTCATGCTCGG (ssDNA) [39-mer ssDNA] |  | 330 | 
